Numbering of substitutions follows the chain as printed. In names and notes the source's numbering stands. Blank lines part the entries; values can stand above or below the binder they belong to.
How the values were obtained:
[1] = biological target: T1, mouse ANGPTL3(17-455)-His (mouse, UniProt Q9R182 17-455, biotin-labelled in the ELISA and HTRF assays (sites not given)); test: SPR (Biacore T200); antibody captured on Protein A chip, antigen in flow; 1:1 Langmuir fit
T1 construct: also called full-length mouse ANGPTL3
T1 sequence: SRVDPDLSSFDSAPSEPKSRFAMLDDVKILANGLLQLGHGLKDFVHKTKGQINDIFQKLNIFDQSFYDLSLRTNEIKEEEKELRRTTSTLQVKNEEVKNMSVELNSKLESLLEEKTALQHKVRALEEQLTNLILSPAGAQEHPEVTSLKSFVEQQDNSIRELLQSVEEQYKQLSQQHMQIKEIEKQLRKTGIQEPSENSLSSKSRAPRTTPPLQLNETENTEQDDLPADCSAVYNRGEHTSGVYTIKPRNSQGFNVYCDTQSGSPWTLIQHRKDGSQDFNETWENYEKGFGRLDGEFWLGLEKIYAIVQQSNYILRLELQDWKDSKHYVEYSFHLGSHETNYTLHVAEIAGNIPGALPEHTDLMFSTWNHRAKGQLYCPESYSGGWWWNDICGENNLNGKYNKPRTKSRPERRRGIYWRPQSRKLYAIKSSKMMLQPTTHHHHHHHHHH
Text: (§1) Biacore was used to determine the affinity of the test anti-ANGPTL3 antibodies for human, monkey, rat and mouse ANGPTL3, and the method is as follows:
(§2) Reaction signals were detected in real time using a Biacore T200 instrument to obtain association and dissociation curves. After each cycle of dissociation was completed, the biochip was washed and regenerated using a glycine-hydrochloric acid regeneration solution (Cat. # BR-1003-54, GE, pH 1.5). The running buffer for the experiment was 1×HBS-EP buffer (Cat. # BR-1001-88, GE). The data obtained from the experiment were fitted with the (1:1) Langmuir model using GE Biacore T200 evaluation software (version 3.0) to obtain affinity values.

[2] = biological target: T2, cynomolgus monkey ANGPTL3(17-460)-His (cynomolgus monkey, UniProt Q9Y5C1 17-460 (human entry), biotin-labelled in the ELISA and HTRF assays (sites not given)); test: as above
T2 construct: also called full-length cynomolgus monkey ANGPTL3; Cyno ANGPTL3
T2 chain: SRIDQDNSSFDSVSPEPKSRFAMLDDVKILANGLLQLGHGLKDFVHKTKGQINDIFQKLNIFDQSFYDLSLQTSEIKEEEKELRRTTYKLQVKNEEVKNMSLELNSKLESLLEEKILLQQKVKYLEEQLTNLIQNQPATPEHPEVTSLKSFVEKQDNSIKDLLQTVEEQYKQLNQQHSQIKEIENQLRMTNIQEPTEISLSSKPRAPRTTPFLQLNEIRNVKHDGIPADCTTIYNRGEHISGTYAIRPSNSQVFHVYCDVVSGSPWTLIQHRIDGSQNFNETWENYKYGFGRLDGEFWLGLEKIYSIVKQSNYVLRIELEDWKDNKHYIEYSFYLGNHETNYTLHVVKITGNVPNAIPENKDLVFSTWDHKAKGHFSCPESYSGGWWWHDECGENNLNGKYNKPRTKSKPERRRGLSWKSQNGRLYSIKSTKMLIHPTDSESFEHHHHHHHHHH
Text: as §1, §2

[3] = biological target: T1, mouse ANGPTL3(17-455)-His; test: cell-based or functional assay
[4] = biological target: T3, human ANGPTL3(17-170)-Flag-His (human); test: cell-based or functional assay
T3 chain: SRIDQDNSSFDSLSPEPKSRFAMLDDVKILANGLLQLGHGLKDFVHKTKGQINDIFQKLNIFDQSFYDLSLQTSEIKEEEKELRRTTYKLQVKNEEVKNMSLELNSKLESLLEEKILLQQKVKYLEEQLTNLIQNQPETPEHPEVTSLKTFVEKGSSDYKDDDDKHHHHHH

[5] = biological target: T2, cynomolgus monkey ANGPTL3(17-460)-His; test: cell-based or functional assay
rat ANGPTL3(17-455)-His [6] = biological target: T4, rat ANGPTL3(17-455)-His (rat, biotin-labelled in the ELISA and HTRF assays (sites not given)); test: cell-based or functional assay
T4 chain: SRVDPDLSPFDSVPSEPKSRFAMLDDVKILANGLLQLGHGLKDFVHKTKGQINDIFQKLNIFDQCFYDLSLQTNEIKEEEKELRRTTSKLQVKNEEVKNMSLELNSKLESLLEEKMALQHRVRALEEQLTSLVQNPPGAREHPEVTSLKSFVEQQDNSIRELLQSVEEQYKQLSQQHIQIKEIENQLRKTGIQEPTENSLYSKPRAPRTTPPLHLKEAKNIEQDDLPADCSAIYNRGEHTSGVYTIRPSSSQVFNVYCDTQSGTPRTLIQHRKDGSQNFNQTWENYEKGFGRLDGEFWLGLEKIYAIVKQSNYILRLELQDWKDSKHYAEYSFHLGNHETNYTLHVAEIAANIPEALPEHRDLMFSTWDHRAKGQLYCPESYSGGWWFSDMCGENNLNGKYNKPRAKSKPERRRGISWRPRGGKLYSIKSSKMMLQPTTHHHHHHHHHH

rat ANGPTL3(17-455)-His [7] = biological target: T4, rat ANGPTL3(17-455)-His; test: HTRF; biotin-labelled antigen with Streptavidin-Tb cryptate

B1: P8G (antibody, human IgG4 S228P, kappa, V domains shown)
VH: QVQLVQSGAEVKKPGASVKVSCKASGYTFTSYDINWVRQAPGQGLEWVGLINPRDDSTSYAQKFQGRVTMTRDTSTSTMYMELSSLRSEDTAVYFCARDLGSIREVLYYGMDVWGQGTTVTVSS
VL: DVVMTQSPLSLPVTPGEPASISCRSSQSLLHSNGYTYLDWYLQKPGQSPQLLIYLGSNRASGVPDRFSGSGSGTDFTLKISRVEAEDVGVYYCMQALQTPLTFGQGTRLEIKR
notes: also called anti-ANGPTL3 antibody P8G; P8 (variable regions)
Kd [1]: 0.355 nM | koff [1]: 0.000345 s⁻¹ | kon [1]: 970000 M⁻¹ s⁻¹ | Kd [2]: 0.0593 nM | koff [2]: 0.000497 s⁻¹ | kon [2]: 8.37e+06 M⁻¹ s⁻¹

Kd [1]: 0.288 nM | koff [1]: 0.00042 s⁻¹ | kon [1]: 1.46e+06 M⁻¹ s⁻¹ | Kd [2]: 0.0769 nM | koff [2]: 0.000398 s⁻¹ | kon [2]: 5.18e+06 M⁻¹ s⁻¹ | IC50 of blocking the inhibition of bovine LPL enzyme activity by ANGPTL3 [3]: 41.5 nM | IC50 of blocking the inhibition of bovine LPL enzyme activity by ANGPTL3 [4]: 75.3 nM | IC50 of blocking the inhibition of bovine LPL enzyme activity by ANGPTL3 [5]: 53.6 nM | IC50 of blocking the inhibition of bovine LPL enzyme activity by ANGPTL3 (rat ANGPTL3(17-455)-His [6]): 132 nM | EC50 (rat ANGPTL3(17-455)-His [7]): 0.362 nM
B2: P8BG (antibody, human IgG4 S228P, kappa, V domains shown)
VH: B1 VH with D55E
VL: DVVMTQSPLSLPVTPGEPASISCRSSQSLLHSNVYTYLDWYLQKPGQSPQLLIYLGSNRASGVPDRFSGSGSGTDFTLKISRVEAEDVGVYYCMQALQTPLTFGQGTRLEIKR
notes: also called anti-ANGPTL3 antibody P8BG; P8B (variable regions)

B3: P3G (antibody, human IgG4 S228P, kappa, V domains shown)
VH: QVQLVQSGAEVKKPGASVKVSCKSSGYTFTDYYLHWLRQAPGQGPEWMGWISPNSGGTSYAQKFQGRVTMTRDTSISTAYMELSSLRSDDTAVYYCARDIATLGNFFTYGMDVWGQGTTVTVSS
VL: DIQLTQSPSSLSASVGDRVTITCRASQGIRNDLGWYQQKPGKAPKLLIYAASSLQSGVPSRFSGSGSGTDFTLTISSLQPEDFATYYCQQSYSSWTFGQGTKVEIKR
notes: also called anti-ANGPTL3 antibody P3G; P3 (variable regions)
Kd [1]: 0.843 nM | koff [1]: 0.000827 s⁻¹ | kon [1]: 981000 M⁻¹ s⁻¹ | Kd [2]: 0.204 nM | koff [2]: 0.000847 s⁻¹ | kon [2]: 4.15e+06 M⁻¹ s⁻¹ | IC50 of blocking the inhibition of bovine LPL enzyme activity by ANGPTL3 [3]: 168 nM | IC50 of blocking the inhibition of bovine LPL enzyme activity by ANGPTL3 [4]: 68.9 nM | IC50 of blocking the inhibition of bovine LPL enzyme activity by ANGPTL3 [5]: 42.4 nM | IC50 of blocking the inhibition of bovine LPL enzyme activity by ANGPTL3 (rat ANGPTL3(17-455)-His [6]): 66.5 nM

From patent US20230138315A1 (JIANGSU HENGRUI MEDICINE, published 2023)
